Laboratory results: patent publication US20190170753A1

Columns and labels:
[1] = biological target: Mut6T110S biotin labeled HCV core peptide (hepatitis C virus); test: capture EIA; Ab 15.625 ng/mL; bt-peptide 500 ng/mL
[2] = biological target: Mut1T110N biotin labeled HCV core peptide (hepatitis C virus); test: capture EIA; Ab 15.625 ng/mL; bt-peptide 500 ng/mL
[3] = biological target: C113T109N biotin labeled HCV core peptide (hepatitis C virus); test: capture EIA; Ab 15.625 ng/mL; bt-peptide 500 ng/mL
[4] = biological target: 92-133 biotin labeled HCV core peptide (hepatitis C virus) (UniProt Q9WMX2); test: capture EIA; Ab 15.625 ng/mL; bt-peptide 500 ng/mL
[5] = biological target: Mut6T110S biotin labeled HCV core peptide (hepatitis C virus); test: capture EIA; Ab 7.813 ng/mL; bt-peptide 500 ng/mL
[6] = biological target: Mut1T110N biotin labeled HCV core peptide (hepatitis C virus); test: capture EIA; Ab 7.813 ng/mL; bt-peptide 500 ng/mL
[7] = biological target: C113T109N biotin labeled HCV core peptide (hepatitis C virus); test: capture EIA; Ab 7.813 ng/mL; bt-peptide 500 ng/mL
[8] = biological target: 92-133 biotin labeled HCV core peptide (hepatitis C virus) (UniProt Q9WMX2); test: capture EIA; Ab 7.813 ng/mL; bt-peptide 500 ng/mL
[9] = biological target: Mut6T110S biotin labeled HCV core peptide (hepatitis C virus); test: capture EIA; Ab 31.25 ng/mL; bt-peptide 500 ng/mL
[10] = biological target: Mut1T110N biotin labeled HCV core peptide (hepatitis C virus); test: capture EIA; Ab 31.25 ng/mL; bt-peptide 500 ng/mL
[11] = biological target: C113T109N biotin labeled HCV core peptide (hepatitis C virus); test: capture EIA; Ab 31.25 ng/mL; bt-peptide 500 ng/mL
[12] = biological target: 92-133 biotin labeled HCV core peptide (hepatitis C virus) (UniProt Q9WMX2); test: capture EIA; Ab 31.25 ng/mL; bt-peptide 500 ng/mL
[13] = biological target: Mut6T110S biotin labeled HCV core peptide (hepatitis C virus); test: capture EIA; Ab 500 ng/mL; bt-peptide 500 ng/mL
[14] = biological target: Mut1T110N biotin labeled HCV core peptide (hepatitis C virus); test: capture EIA; Ab 500 ng/mL; bt-peptide 500 ng/mL
[15] = biological target: C113T109N biotin labeled HCV core peptide (hepatitis C virus); test: capture EIA; Ab 500 ng/mL; bt-peptide 500 ng/mL
[16] = biological target: 92-133 biotin labeled HCV core peptide (hepatitis C virus) (UniProt Q9WMX2); test: capture EIA; Ab 500 ng/mL; bt-peptide 500 ng/mL
[17] = biological target: Mut6T110S biotin labeled HCV core peptide (hepatitis C virus); test: capture EIA; Ab 250 ng/mL; bt-peptide 500 ng/mL
[18] = biological target: Mut1T110N biotin labeled HCV core peptide (hepatitis C virus); test: capture EIA; Ab 250 ng/mL; bt-peptide 500 ng/mL
[19] = biological target: C113T109N biotin labeled HCV core peptide (hepatitis C virus); test: capture EIA; Ab 250 ng/mL; bt-peptide 500 ng/mL
[20] = biological target: 92-133 biotin labeled HCV core peptide (hepatitis C virus) (UniProt Q9WMX2); test: capture EIA; Ab 250 ng/mL; bt-peptide 500 ng/mL
[21] = biological target: Mut6T110S biotin labeled HCV core peptide (hepatitis C virus); test: capture EIA; Ab 1.953 ng/mL; bt-peptide 500 ng/mL
[22] = biological target: Mut1T110N biotin labeled HCV core peptide (hepatitis C virus); test: capture EIA; Ab 1.953 ng/mL; bt-peptide 500 ng/mL
[23] = biological target: C113T109N biotin labeled HCV core peptide (hepatitis C virus); test: capture EIA; Ab 1.953 ng/mL; bt-peptide 500 ng/mL
[24] = biological target: 92-133 biotin labeled HCV core peptide (hepatitis C virus) (UniProt Q9WMX2); test: capture EIA; Ab 1.953 ng/mL; bt-peptide 500 ng/mL
[25] = biological target: Mut6T110S biotin labeled HCV core peptide (hepatitis C virus); test: capture EIA; Ab 15.6 ng/mL; bt-peptide 500 ng/mL (summary of Table 7)
[26] = biological target: Mut1T110N biotin labeled HCV core peptide (hepatitis C virus); test: as above
[27] = biological target: C113T109N biotin labeled HCV core peptide (hepatitis C virus); test: as above
[28] = biological target: 92-133 biotin labeled HCV core peptide (hepatitis C virus) (UniProt Q9WMX2); test: as above
[29] = biological target: Mut6T110S biotin labeled HCV core peptide (hepatitis C virus); test: capture EIA; Ab 0.977 ng/mL; bt-peptide 500 ng/mL
[30] = biological target: Mut1T110N biotin labeled HCV core peptide (hepatitis C virus); test: capture EIA; Ab 0.977 ng/mL; bt-peptide 500 ng/mL
[31] = biological target: C113T109N biotin labeled HCV core peptide (hepatitis C virus); test: capture EIA; Ab 0.977 ng/mL; bt-peptide 500 ng/mL
[32] = biological target: 92-133 biotin labeled HCV core peptide (hepatitis C virus) (UniProt Q9WMX2); test: capture EIA; Ab 0.977 ng/mL; bt-peptide 500 ng/mL
[33] = biological target: Mut6T110S biotin labeled HCV core peptide (hepatitis C virus); test: capture EIA; Ab 125 ng/mL; bt-peptide 500 ng/mL
[34] = biological target: Mut1T110N biotin labeled HCV core peptide (hepatitis C virus); test: capture EIA; Ab 125 ng/mL; bt-peptide 500 ng/mL
[35] = biological target: C113T109N biotin labeled HCV core peptide (hepatitis C virus); test: capture EIA; Ab 125 ng/mL; bt-peptide 500 ng/mL
[36] = biological target: 92-133 biotin labeled HCV core peptide (hepatitis C virus) (UniProt Q9WMX2); test: capture EIA; Ab 125 ng/mL; bt-peptide 500 ng/mL
[37] = biological target: Mut6T110S biotin labeled HCV core peptide (hepatitis C virus); test: capture EIA; Ab 1000 ng/mL; bt-peptide 500 ng/mL
[38] = biological target: Mut1T110N biotin labeled HCV core peptide (hepatitis C virus); test: capture EIA; Ab 1000 ng/mL; bt-peptide 500 ng/mL
[39] = biological target: C113T109N biotin labeled HCV core peptide (hepatitis C virus); test: capture EIA; Ab 1000 ng/mL; bt-peptide 500 ng/mL
[40] = biological target: 92-133 biotin labeled HCV core peptide (hepatitis C virus) (UniProt Q9WMX2); test: capture EIA; Ab 1000 ng/mL; bt-peptide 500 ng/mL
[41] = biological target: Mut6T110S biotin labeled HCV core peptide (hepatitis C virus); test: capture EIA; Ab 2000 ng/mL; bt-peptide 500 ng/mL
[42] = biological target: Mut1T110N biotin labeled HCV core peptide (hepatitis C virus); test: capture EIA; Ab 2000 ng/mL; bt-peptide 500 ng/mL
[43] = biological target: C113T109N biotin labeled HCV core peptide (hepatitis C virus); test: capture EIA; Ab 2000 ng/mL; bt-peptide 500 ng/mL
[44] = biological target: 92-133 biotin labeled HCV core peptide (hepatitis C virus) (UniProt Q9WMX2); test: capture EIA; Ab 2000 ng/mL; bt-peptide 500 ng/mL
[45] = biological target: Mut6T110S biotin labeled HCV core peptide (hepatitis C virus); test: capture EIA; Ab 3.906 ng/mL; bt-peptide 500 ng/mL
[46] = biological target: Mut1T110N biotin labeled HCV core peptide (hepatitis C virus); test: capture EIA; Ab 3.906 ng/mL; bt-peptide 500 ng/mL
[47] = biological target: C113T109N biotin labeled HCV core peptide (hepatitis C virus); test: capture EIA; Ab 3.906 ng/mL; bt-peptide 500 ng/mL
[48] = biological target: 92-133 biotin labeled HCV core peptide (hepatitis C virus) (UniProt Q9WMX2); test: capture EIA; Ab 3.906 ng/mL; bt-peptide 500 ng/mL
[49] = biological target: Mut6T110S biotin labeled HCV core peptide (hepatitis C virus); test: capture EIA; Ab 62.5 ng/mL; bt-peptide 500 ng/mL
[50] = biological target: Mut1T110N biotin labeled HCV core peptide (hepatitis C virus); test: capture EIA; Ab 62.5 ng/mL; bt-peptide 500 ng/mL
[51] = biological target: C113T109N biotin labeled HCV core peptide (hepatitis C virus); test: capture EIA; Ab 62.5 ng/mL; bt-peptide 500 ng/mL
[52] = biological target: 92-133 biotin labeled HCV core peptide (hepatitis C virus) (UniProt Q9WMX2); test: capture EIA; Ab 62.5 ng/mL; bt-peptide 500 ng/mL

C11-3 (ABT-4) monoclonal antibody
signal at 492 nm [1]: 0.807 A492 | signal at 492 nm [2]: 0.11 A492 | signal at 492 nm [3]: 0.116 A492 | signal at 492 nm [4]: 1.01 A492 | signal at 492 nm [5]: 0.344 A492 | signal at 492 nm [6]: 0.0966 A492 | signal at 492 nm [7]: 0.119 A492 | signal at 492 nm [8]: 0.562 A492 | signal at 492 nm [9]: 1.54 A492 | signal at 492 nm [10]: 0.107 A492 | signal at 492 nm [11]: 0.16 A492 | signal at 492 nm [12]: 1.55 A492 | signal at 492 nm [13]: 2.24 A492 | signal at 492 nm [14]: 0.0765 A492 | signal at 492 nm [15]: 0.0882 A492 | signal at 492 nm [16]: 1.95 A492 | signal at 492 nm [17]: 1.83 A492 | signal at 492 nm [18]: 0.0857 A492 | signal at 492 nm [19]: 0.0963 A492 | signal at 492 nm [20]: 1.68 A492 | signal at 492 nm [21]: 0.0964 A492 | signal at 492 nm [22]: 0.0854 A492 | signal at 492 nm [23]: 0.114 A492 | signal at 492 nm [24]: 0.134 A492 | signal at 492 nm [25]: 0.807 A492 | signal at 492 nm [26]: 0.11 A492 | signal at 492 nm [27]: 0.116 A492 | signal at 492 nm [28]: 1.01 A492 | signal at 492 nm [29]: 0.101 A492 | signal at 492 nm [30]: 0.0755 A492 | signal at 492 nm [31]: 0.104 A492 | signal at 492 nm [32]: 0.116 A492 | signal at 492 nm [33]: 2.02 A492 | signal at 492 nm [34]: 0.127 A492 | signal at 492 nm [35]: 0.147 A492 | signal at 492 nm [36]: 1.83 A492 | signal at 492 nm [37]: 2.15 A492 | signal at 492 nm [38]: 0.0721 A492 | signal at 492 nm [39]: 0.0806 A492 | signal at 492 nm [40]: 1.87 A492 | signal at 492 nm [41]: 1.73 A492 | signal at 492 nm [42]: 0.0915 A492 | signal at 492 nm [43]: 0.0707 A492 | signal at 492 nm [44]: 1.45 A492 | signal at 492 nm [45]: 0.227 A492 | signal at 492 nm [46]: 0.079 A492 | signal at 492 nm [47]: 0.0833 A492 | signal at 492 nm [48]: 0.183 A492 | signal at 492 nm [49]: 2.11 A492 | signal at 492 nm [50]: 0.155 A492 | signal at 492 nm [51]: 0.202 A492 | signal at 492 nm [52]: 1.92 A492
